Positions of bridges follow the written chain, without caps; N, C: chain ends. No end group written: not given here.
B1: HR2-D (peptide)
peptide: DACISQVNECINQSLAFICKSDELLCNT
modifications: not fully specified (bridges); also: predicted disulfides C3-C10 and C19-C26
B2: HR2-S (peptide)
peptide: FDACISQVNECINQSLAFIRKSDELLHNVNAGKST
modifications: disulfide 4-11

Molecular target: RSV fusion (F) protein (respiratory syncytial virus (strains …, UniProt P03420 26-574))
Assay: cell-based or functional assay

Chain of RSV fusion (F) protein (respiratory syncytial virus (P03420 26-574): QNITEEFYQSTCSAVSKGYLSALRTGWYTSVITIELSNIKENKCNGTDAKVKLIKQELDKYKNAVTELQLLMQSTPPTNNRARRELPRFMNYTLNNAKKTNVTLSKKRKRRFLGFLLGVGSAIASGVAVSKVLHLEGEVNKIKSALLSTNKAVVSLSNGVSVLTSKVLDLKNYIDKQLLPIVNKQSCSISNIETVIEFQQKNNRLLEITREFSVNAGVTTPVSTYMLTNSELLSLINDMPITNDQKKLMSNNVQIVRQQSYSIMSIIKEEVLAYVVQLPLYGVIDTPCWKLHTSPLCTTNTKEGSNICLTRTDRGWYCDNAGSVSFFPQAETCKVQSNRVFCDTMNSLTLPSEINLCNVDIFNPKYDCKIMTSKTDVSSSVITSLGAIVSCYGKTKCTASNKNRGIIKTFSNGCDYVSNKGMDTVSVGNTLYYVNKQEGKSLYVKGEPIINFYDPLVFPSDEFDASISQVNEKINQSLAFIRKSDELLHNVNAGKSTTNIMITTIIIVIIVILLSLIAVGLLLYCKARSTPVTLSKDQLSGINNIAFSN

| Binder | A2 RSV viral titers, plaque assay (time point not clearly stated) | A2 RSV viral titers, plaque assay on HEp2 cells, 24 h to 96 h pi [fold reduction] | A2 RSV viral titers, plaque assay, 96 h pi | RA2 RSV viral titers, plaque assay (time point not clearly stated) [fold decrease] | RA2 RSV viral titers, plaque assay on HEp2 cells, 24 h to 96 h pi [fold reduction] | RA2 RSV viral titers, plaque assay, 96 h pi |
| --- | --- | --- | --- | --- | --- | --- |
| B1 | 100 fold reduction | ≥ 100 | 50000 fold reduction | 100 | ≥ 100 | 1000 fold less |
| B2 | 0.1 fold decrease | ~0.2 | 0.1 fold decrease | 100 | – | 20 fold smaller |

— US9556236 (UNIVERSITY OF SOUTH FLORIDA, dated 2017)
